# Test results from patent publication US20160002343A1 (AbbVie / Abbott, published 2016).
# B1: AB221 (antibody, from another filing, V domains shown)
# VH: EVQLVESGGGLVQPGNSLTLSCVASGFTFSNYGMHWIRQAPKKGLEWIAMIYYDSSKMNYADTVKGRFTISRDNSKNTLYLEMNSLRSEDTAMYYCAVPTSHYVVDVWGQGVSVTVSS
# VL: DIQMTQSPASLSASLEEIVTITCQASQDIGNWLAWYQQKPGKSPQLLIYGATSLADGVPSRFSGSRSGTQFSLKISRVQVEDIGIYYCLQAYNTPWTFGGGTKLELKR
# B2: DVD2360 (bispecific antibody)
# VH: EVQLVESGGGLVQPGGSLRLSCAASGFTFSNYGMHWIRQAPGKGLEWIAMIYYDSSKMNYADTVKGRFTISRDNAKNSLYLQMNSLRAEDTAVYYCAVPTSHYVVDVWGQGTTVTVSSASTKGPEVQLLESGGGLVQPGGSLRLSCAASGFTFSNYGMSWVRQAPGKGLEWVASIRSGGGRTYYSDNVKGRFTISRDNSKNTLYLQMNSLRAEDTAVYYCVRYDHYSGSSDYWGQGTLVTVSS
# VL: EIVMTQSPATLSVSPGERATLSCQASQDIGNWLAWYQQKPGQSPRLLIYGATSLADGVPARFSGSRSGTEFTLTISSLQSEDFAVYYCLQAYNTPWTFGGGTKVEIKRTVAAPDVVMTQSPLSLPVTPGEPASISCKSSQSLLDSDGKTYLNWLLQKPGQSPQRLIYLVSKLDSGVPDRFSGSGSGTDFTLKISRVEAEDVGVYYCWQGTHFPRTFGQGTKVEIK
# notes: DVD-Ig
# B3: muTNF(8C11)-GS-muTfR(AB221) (bispecific antibody)
# VH: EFQLQQSGPELVKPGASVRISCKASGYSFTDYNMNWVKQSNGKSLEWVGVINPNYGSSTYNQKFKGKATLTVDQSSSTAYMQLNSLTSEDSAVYYCARKWGQLGRGFFDVWGTGTTVTVSSGGGGSGGGGSEVQLVESGGGLVQPGNSLTLSCVASGFTFSNYGMHWIRQAPKKGLEWIAMIYYDSSKMNYADTVKGRFTISRDNSKNTLYLEMNSLRSEDTAMYYCAVPTSHYVVDVWGQGVSVTVSS
# VL: QIVLSQSPAILSASPGEKVTMTCRASSSVSYMHWFQQKPGSSPKPWIYATSNLASGVPARFSGSGSGTSYSLTISRVEAEDAATYYCQQWSSSPLTFGAGTKLELKRGGSGGGGSGDIQMTQSPASLSASLEEIVTITCQASQDIGNWLAWYQQKPGKSPQLLIYGATSLADGVPSRFSGSRSGTQFSLKISRVQVEDIGIYYCLQAYNTPWTFGGGTKLELK
# notes: DVD-Ig; outer 8C11 (TNF), inner AB221 (TfR); also called 8C11-GS-AB221 DVD-Ig protein; TNF-GS-AB221; copies: 2 + 2
# B4: anti-TNF antibody 8C11 (antibody, V domains shown)
# VH: EFQLQQSGPELVKPGASVRISCKASGYSFTDYNMNWVKQSNGKSLEWVGVINPNYGSSTYNQKFKGKATLTVDQSSSTAYMQLNSLTSEDSAVYYCARKWGQLGRGFFDVWGTGTTVTVSS
# VL: QIVLSQSPAILSASPGEKVTMTCRASSSVSYMHWFQQKPGSSPKPWIYATSNLASGVPARFSGSGSGTSYSLTISRVEAEDAATYYCQQWSSSPLTFGAGTKLELKR
# Tests used:
# [1] = target: mouse Transferrin Receptor overexpressed on Hek 293 cells (mouse) (UniProt Q62351); test: binding signal on TfR against 'Ab, ng/ml'; format not stated for this figure, Examples 4 and 9 describe the cell-based Hek293/mTfR MSD-ECL binding assay
# Sequence of mouse Transferrin Receptor overexpressed on Hek 293 cells (mouse) (Q62351 whole entry): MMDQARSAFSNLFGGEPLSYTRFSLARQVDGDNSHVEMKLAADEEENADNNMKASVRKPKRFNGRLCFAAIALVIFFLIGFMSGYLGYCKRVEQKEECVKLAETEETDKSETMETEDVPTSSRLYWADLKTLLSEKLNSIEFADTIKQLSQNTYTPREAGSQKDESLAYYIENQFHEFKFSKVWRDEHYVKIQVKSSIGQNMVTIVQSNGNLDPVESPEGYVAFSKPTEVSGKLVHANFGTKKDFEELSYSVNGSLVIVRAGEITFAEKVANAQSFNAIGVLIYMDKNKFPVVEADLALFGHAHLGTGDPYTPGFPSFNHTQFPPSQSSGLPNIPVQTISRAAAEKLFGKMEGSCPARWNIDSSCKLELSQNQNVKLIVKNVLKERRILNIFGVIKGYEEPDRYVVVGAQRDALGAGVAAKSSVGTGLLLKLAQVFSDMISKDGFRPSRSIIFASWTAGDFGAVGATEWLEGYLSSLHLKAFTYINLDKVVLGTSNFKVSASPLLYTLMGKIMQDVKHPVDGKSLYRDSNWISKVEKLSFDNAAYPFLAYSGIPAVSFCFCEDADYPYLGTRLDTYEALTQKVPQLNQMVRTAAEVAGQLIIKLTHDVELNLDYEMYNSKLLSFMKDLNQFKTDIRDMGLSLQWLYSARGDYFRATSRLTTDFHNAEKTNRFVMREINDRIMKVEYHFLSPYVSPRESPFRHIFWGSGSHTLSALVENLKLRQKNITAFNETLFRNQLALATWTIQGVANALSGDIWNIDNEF
# [2] = target: mouse Transferrin Receptor overexpressed on Hek 293 cells (mouse) (UniProt Q62351); test: TfR binding EC50, cell-based assay (repeats Table 7)
# [3] = target: rmTfR (119-763) (mouse) (UniProt Q62351); test: Biacore SPR, antibody captured by anti-human IgG Fc, rmTfR (119-763) in solution
# Sequence of rmTfR (119-763) (mouse) (Q62351 119-763): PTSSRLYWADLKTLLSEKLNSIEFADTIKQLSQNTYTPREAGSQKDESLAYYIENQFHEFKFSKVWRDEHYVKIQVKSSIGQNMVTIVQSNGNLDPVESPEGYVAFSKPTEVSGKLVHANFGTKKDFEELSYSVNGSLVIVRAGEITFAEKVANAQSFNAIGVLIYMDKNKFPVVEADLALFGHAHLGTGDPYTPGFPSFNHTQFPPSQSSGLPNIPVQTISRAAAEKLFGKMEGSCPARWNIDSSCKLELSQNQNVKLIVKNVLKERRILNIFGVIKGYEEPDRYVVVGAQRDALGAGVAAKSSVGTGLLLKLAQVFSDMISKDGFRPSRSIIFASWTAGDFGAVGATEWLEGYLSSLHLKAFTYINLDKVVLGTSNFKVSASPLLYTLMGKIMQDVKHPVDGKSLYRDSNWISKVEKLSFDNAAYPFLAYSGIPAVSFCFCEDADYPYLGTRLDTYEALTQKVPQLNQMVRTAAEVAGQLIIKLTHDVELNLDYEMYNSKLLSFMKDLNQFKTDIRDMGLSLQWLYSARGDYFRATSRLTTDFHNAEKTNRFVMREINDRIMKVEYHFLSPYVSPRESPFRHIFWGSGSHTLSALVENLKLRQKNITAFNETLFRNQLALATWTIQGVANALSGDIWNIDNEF
# [4] = target: mouse Transferrin Receptor overexpressed on Hek 293 cells (mouse) (UniProt Q62351); test: mTfR binding cell-based assay
# [5] = target: mouse Transferrin Receptor overexpressed on Hek 293 cells (mouse) (UniProt Q62351); test: cell-based MSD-ECL binding, Hek293/mTfR cells
# [6] = target: T1, mouse Transferrin Receptor overexpressed on Hek 293 cells (mouse, UniProt Q62351 1-763); test: cell-based MSD-ECL binding, Hek293/mTfR cells
# T1 construct: whole, on cells; also called mTfR; Hek293/mTfR
# T1 sequence (Q62351 whole entry): as the sequence (Q62351 whole entry) above
# Description: (§1) Meso-scale Discovery (MSD) Electrochemiluminescence (ECL) assays to screen for antibodies or DVD-Ig proteins that bind a desired target antigen expressed on the cell surface were performed as follows: Hek 293 cells overexpressing mouse Transferrin Receptor were added onto MSD 96-well plates (MSD Cat# L11 XB-3, lot#2290-EA). The plates which were blocked using blocking buffer (30% FBS Serum (Hyclone) in PBS) at 37° C. for 1 hour. After incubating at room temperature (RT) for 30 minutes with mild agitation, plates were washed with DPBS 3 times and Abs/DVD-Ig proteins (10,000 ng/ml) were added. After incubating for 1 hour at RT, plates were washed 3 times with DPBS and 25 μl of Goat anti-human Sulfo TAG (MSD Cat# R32AC-, Lot# W001162) at 1 μg/ml was added. Following incubation at RT for 1 hour, plates were washed and MSD read buffer was added before reading on a MSD SECTOR Imager 6000. EC50 values were obtained using Xlfit4 software package.
# [7] = target: T2, rmTfR (123-763) (mouse, UniProt Q62351 123-763); test: Biacore SPR, DVD-Ig captured by anti-human IgG Fc, rmTfR (123-763) in solution
# T2 construct: range 123-763; also called recombinant mouse transferrin receptor 123-763
# T2 sequence (Q62351 123-763): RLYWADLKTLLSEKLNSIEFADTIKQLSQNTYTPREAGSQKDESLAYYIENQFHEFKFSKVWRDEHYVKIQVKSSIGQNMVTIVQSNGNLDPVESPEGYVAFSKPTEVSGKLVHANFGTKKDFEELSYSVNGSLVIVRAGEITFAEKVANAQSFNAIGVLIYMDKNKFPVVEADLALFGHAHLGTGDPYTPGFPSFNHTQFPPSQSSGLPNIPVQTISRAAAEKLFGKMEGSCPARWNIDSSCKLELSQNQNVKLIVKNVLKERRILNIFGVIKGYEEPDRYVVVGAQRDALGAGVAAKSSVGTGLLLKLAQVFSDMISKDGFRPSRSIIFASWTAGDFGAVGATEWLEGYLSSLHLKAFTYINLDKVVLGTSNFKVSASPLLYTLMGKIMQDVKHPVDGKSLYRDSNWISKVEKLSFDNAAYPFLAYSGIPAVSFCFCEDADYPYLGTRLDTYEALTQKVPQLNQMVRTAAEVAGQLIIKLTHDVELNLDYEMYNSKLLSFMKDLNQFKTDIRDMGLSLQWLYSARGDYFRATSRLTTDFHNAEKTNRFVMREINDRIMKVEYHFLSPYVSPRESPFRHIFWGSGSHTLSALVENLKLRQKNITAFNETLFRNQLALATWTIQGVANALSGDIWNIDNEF
# Description: The BIACORE assay (Biacore, Inc, Piscataway, N.J.) was used to determine the affinity of antibodies or DVD-Ig proteins with kinetic measurements of on-rate and off-rate constants. Binding of antibodies or DVD-Ig protein to a target antigen (for example, a purified recombinant target antigen) was determined by surface plasmon resonance-based measurements with a Biacore® 1000 or 3000 instrument (Biacore® AB, Uppsala, Sweden) using running HBS-EP (10 mM HEPES [pH 7.4], 150 mM NaCl, 3 mM EDTA, and 0.005% surfactant P20) at 25° C. All chemicals were obtained from Biacore® AB (Uppsala, Sweden) or otherwise from a different source as described in the text. For example, approximately 5000 RU of goat anti-human IgG, (Fcγ), fragment specific polyclonal antibody (Pierce Biotechnology Inc, Rockford, Ill.) diluted in 10 mM sodium acetate (pH 4.5) was directly immobilized across a CM5 research grade biosensor chip using a standard amine coupling kit according to manufacturer's instructions and procedures at 25 μg/ml. Unreacted moieties on the biosensor surface were blocked with ethanolamine. Modified carboxymethyl dextran surface in flowcell 2 and 4 was used as a reaction surface. Unmodified carboxymethyl dextran without goat anti-human IgG in flow cell 1 and 3 was used as the reference surface. For kinetic analysis, rate equations derived from the 1:1 Langmuir binding model were fitted simultaneously to association and dissociation phases of all eight injections (using global fit analysis) with the use of BIAevaluation 4.0.1 software. […] The association and dissociation rate constants, kon (M⁻¹ s⁻¹) and koff (s⁻¹) were determined under a continuous flow rate of 25 μl/minute. […] The equilibrium dissociation constant (M) of the reaction between antibodies or DVD-Ig proteins and the target antigen was then calculated from the kinetic rate constants by the following formula: KD=koff/kon. Binding was recorded as a function of time and kinetic rate constants were calculated.
# [8] = target: T1, mouse Transferrin Receptor …; test: 293/mTfR cell-based assay
# Description: as §1
# [9] = target: T3, TNF (mouse, UniProt P06804 80-235); test: cell-based or functional assay
# T3 sequence (looked up): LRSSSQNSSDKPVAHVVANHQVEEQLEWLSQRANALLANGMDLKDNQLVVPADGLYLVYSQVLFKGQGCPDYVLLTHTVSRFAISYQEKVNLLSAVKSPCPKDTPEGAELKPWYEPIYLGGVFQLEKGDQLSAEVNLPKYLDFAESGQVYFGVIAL
binder,measurement,setting,value
B1,EC50 (read off the curve),[1],0.03 µg/mL
same,EC50,[2],0.1 nM
same,Kd,[3],5 nM
same,koff,[3],0.000181 s⁻¹
same,kon,[3],39400 M⁻¹ s⁻¹
same,EC50,[4],0.12 nM
same,EC50,[5],0.1 nM
B2,EC50,[6],0.15 nM
same,Kd,[7],1.7 nM
same,koff,[7],4.8e-05 s⁻¹
same,kon,[7],28000 M⁻¹ s⁻¹
B3,EC50,[8],1.68 nM
same,L929 TNF Neutralization assay IC50,[9],0.59 nM
B4,L929 TNF Neutralization assay IC50,[9],5 nM
